Results from patent US20140178375A1 (TRUSTEES OF THE UNIVERSITY PF PENNSYLVANIA, published 2014).

What was measured:
human EGFR on NE91 cells [1] = molecular target: T1, human EGFR on NE91 cells (human, UniProt P00533 25-1210); test: FACS, 100 ug S22-Fc on 1x10^5 cells, anti-His detection
T1 construct: whole, on cells; also called epidermal growth factor receptor
Procedure: FACS analysis was used to detect binding of S22-Fc to HER2-expressing cell lines. Purified S22-Fc was used in FACS experiments to stain cells with different expression levels of HER2 and EGFR. Initially, 1×10⁵ cells were incubated with 100 μg S22-Fc for 30 minutes on ice. The cells were then washed and incubated with his-tag-specific rabbit antisera and secondary Alexa488-conjugated anti-rabbit antibodies, used sequentially. As a negative control, parallel cell preparations were exposed to only his-tag-specific rabbit antisera and secondary antibodies.

[2] = molecular target: T2, human HER2 on T6-17 cells (human, UniProt P04626 23-1255); test: FACS on T6-17 cells expressing human HER2, detected by anti-his tag and secondary antibodies; control (anti-his tag and secondary antibodies only) has Geo mean 3.99
T2 construct: whole, on cells; also called HER2/neu; human epidermal growth factor receptor 2

human EGFR on NE91 cells [3] = molecular target: T1, human EGFR on NE91 cells; test: FACS on NE91 cells
[4] = molecular target: T2, human HER2 on T6-17 cells; test: FACS on T6-17 cells

Row | binding result (human EGFR on NE91 cells [1]) | FACS Geo mean [2] | binding result (human EGFR on NE91 cells [3]) | binding result [4] | Binder
1 | binds | 27.2 |  |  | S22-Fc (Fc fusion, S22 peptide, glycine-serine linker, human IgG1 Fc (hinge part, CH2, CH3) and C-terminal His tag; Expressed in E. coli and purified on Ni-sepharose; also called S22-Fc fusion protein) MAYCFPDEEGACYGGGGGSDKTHTCPPCPAPELLGGPSVFLFPPKPKDTLMISRTPEVTCVVVDVSHEDPEVKFNWYVDGVEVHNAKTKPREEQYNSTYRVVSVLTVLHQDWLNGKEYKCKVSNKALPAPIEKTISKAKGQPREPQVYTLPPSRDELTKNQVSLTCLVKGFYPSDIAVEWESNGQPENNYKTTPPVLDSDGSFFLYSKLTVDKSRWQQGNVFSCSVMHEALHNHYTQKSLSLSLEHHHHHH
2 |  |  | binds | binds | S22-FcT322A (Fc fusion) MAYCFPDEEGACYGGGGGSDKTHTCPPCPAPELLGGPSVFLFPPKPKDTLMISRTPEVTCVVVDVSHEDPEVKFNWYVDGVEVHNAKTKPREEQYNSAYRVVSVLTVLHQDWLNGKEYKCKVSNKALPAPIEKTISKAKGQPREPQVYTLPPSRDELTKNQVSLTCLVKGFYPSDIAVEWESNGQPENNYKTTPPVLDSDGSFFLYSKLTVDKSRWQQGNVFSCSVMHEALHNHYTQKSLSLSLEHHHHHH
3 |  | 39.1 | binds |  | LS22FcT322AG7 (Fc fusion, It has the N-terminal MLCGGGG before the S22 peptide, the T322A Fc and a His tag; also called S22-FcT322A#2; S22FcT322A#2) MLCGGGGYCFPDEEGACYGGGGGSDKTHTCPPCPAPELLGGPSVFLFPPKPKDTLMISRTPEVTCVVVDVSHEDPEVKFNWYVDGVEVHNAKTKPREEQYNSAYRVVSVLTVLHQDWLNGKEYKCKVSNKALPAPIEKTISKAKGQPREPQVYTLPPSRDELTKNQVSLTCLVKGFYPSDIAVEWESNGQPENNYKTTPPVLDSDGSFFLYSKLTVDKSRWQQGNVFSCSVMHEALHNHYTQKSLSLSLEHHHHHH
4 |  | 51 |  |  | LS22FcG7 (Fc fusion, Wild type Fc fragment with the N-terminal MLCGGGG before the S22 peptide, and a His tag) MLCGGGGYCFPDEEGACYGGGGGSDKTHTCPPCPAPELLGGPSVFLFPPKPKDTLMISRTPEVTCVVVDVSHEDPEVKFNWYVDGVEVHNAKTKPREEQYNSTYRVVSVLTVLHQDWLNGKEYKCKVSNKALPAPIEKTISKAKGQPREPQVYTLPPSRDELTKNQVSLTCLVKGFYPSDIAVEWESNGQPENNYKTTPPVLDSDGSFFLYSKLTVDKSRWQQGNVFSCSVMHEALHNHYTQKSLSLSLEHHHHHH
5 |  | 28.7 |  |  | LS22FcT322AS7 (Fc fusion) S22 peptide-Fc fusion chain with C-terminal His tag: MLCGGGSYCFPDEEGACYGGGGGSDKTHTCPPCPAPELLGGPSVFLFPPKPKDTLMISRTPEVTCVVVDVSHEDPEVKFNWYVDGVEVHNAKTKPREEQYNSAYRVVSVLTVLHQDWLNGKEYKCKVSNKALPAPIEKTISKAKGQPREPQVYTLPPSRDELTKNQVSLTCLVKGFYPSDIAVEWESNGQPENNYKTTPPVLDSDGSFFLYSKLTVDKSRWQQGNVFSCSVMHEALHNHYTQKSLSLSLEHHHHHH
